According to patent publication US20260297194 (published 2026):
One block for each binder: values may come before it.

How the values were obtained:
human GPRC5D [1] = target: T1, human GPRC5D (human, UniProt Q9NZD1); test: FACS, RPMI8226 cells
T1 chain: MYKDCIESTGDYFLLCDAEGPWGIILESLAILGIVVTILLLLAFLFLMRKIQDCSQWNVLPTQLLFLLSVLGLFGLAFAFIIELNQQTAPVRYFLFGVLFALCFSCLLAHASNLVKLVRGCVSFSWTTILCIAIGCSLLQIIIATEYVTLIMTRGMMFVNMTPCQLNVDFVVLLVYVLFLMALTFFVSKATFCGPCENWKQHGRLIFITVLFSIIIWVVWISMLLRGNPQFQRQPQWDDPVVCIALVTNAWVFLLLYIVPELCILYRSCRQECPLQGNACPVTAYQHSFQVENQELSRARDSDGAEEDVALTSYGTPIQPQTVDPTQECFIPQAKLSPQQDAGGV

human GPRC5D [2] = target: T1, human GPRC5D; test: FACS, NCI-H929 cells
human GPRC5D [3] = target: T1, human GPRC5D; test: FACS, human GPRC5D-CHOK1 cells
human GPRC5D [4] = target: T1, human GPRC5D; test: FACS, NCI-H929 cells
human GPRC5D [5] = target: T1, human GPRC5D; test: FACS, human GPRC5D-CHOK1 cells
human GPRC5A = human GPRC5A (human, UniProt Q8NFJ5); test: FACS, human GPRC5A-CHOK1 cells
human GPRC5A, sequence (Q8NFJ5 whole entry): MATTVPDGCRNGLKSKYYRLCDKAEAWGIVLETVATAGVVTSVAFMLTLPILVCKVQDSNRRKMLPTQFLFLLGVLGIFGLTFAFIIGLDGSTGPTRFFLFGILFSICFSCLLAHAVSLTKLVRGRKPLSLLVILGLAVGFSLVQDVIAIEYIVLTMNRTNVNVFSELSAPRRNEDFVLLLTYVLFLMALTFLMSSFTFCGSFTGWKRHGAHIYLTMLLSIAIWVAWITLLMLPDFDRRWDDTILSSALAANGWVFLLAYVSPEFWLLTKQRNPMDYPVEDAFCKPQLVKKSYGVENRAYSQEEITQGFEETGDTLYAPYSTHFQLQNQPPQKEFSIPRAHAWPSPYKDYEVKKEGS

human CD3 [6] = target: T2, human CD3 (human, UniProt P07766); test: FACS, Jurkat cells
T2 chain: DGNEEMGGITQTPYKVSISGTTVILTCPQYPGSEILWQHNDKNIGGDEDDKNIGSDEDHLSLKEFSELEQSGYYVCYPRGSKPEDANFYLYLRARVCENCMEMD

human CD3 [7] = target: T2, human CD3; test: SPR
cynomolgus CD3 = target: T3, cynomolgus CD3 (cynomolgus monkey, UniProt Q95LI5); test: SPR
T3 chain: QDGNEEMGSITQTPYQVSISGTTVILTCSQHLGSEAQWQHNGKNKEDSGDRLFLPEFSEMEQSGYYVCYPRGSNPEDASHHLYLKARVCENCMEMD

EC50 (human GPRC5D [1]): 7.48 nM
EC50 (human GPRC5D [2]): 1.07 nM
B1: Bispecific antibody 1 (GPRC5D arm) (antibody, V domains shown)
VH: QVQLVQSGAEVKKPGASVKVSCKASGYTFTSYIIHWVRQAPGQGLEWIGYINPYNDGTKYNEKFKGRVTMTSDTSTSTVYMELSSLRSEDTAVYYCARGGIRAFMNYWGQGTLVTVSS
VL: DIQMTQSPSSLSASVGDRVTITCKASQDVGTAVAWYQQKPGKAPKLLIYWASTRHTGVPSRFSGSGSGTDFTLTISSLQPEDFATYYCQHYISWTFGQGTKVEIK

EC50 (human GPRC5D [3]): 0.51 nM
EC50 (human GPRC5D [4]): 0.3 nM
B2: 18CH16H2L1 (antibody, V domains shown)
VH: QVQLVQSGAEVKKPGASVKVSCKASGYTFTSYIIHWVRQAPGQGLEWIGYINPYNDGTKYNEKFKGRVTMTSDTSTSTVYMELSSLRSEDTAVYYCARGGIRAFMNYWGQGTLVTVSS
VL: DIQMTQSPSSLSASVGDRVTITCKASQDVGTAVAWYQQKPGKAPKLLIYWASTRHTGVPSRFSGSGSGTDFTLTISSLQPEDFATYYCQHYISWTFGQGTKVEIK

EC50 (human GPRC5D [1]): 22.9 nM
EC50 (human GPRC5D [2]): 5.19 nM
B3: Bispecific antibody 2 (GPRC5D arm) (antibody, V domains shown)
VH: QVQLVQSGAEVKKPGASVKVSCKASGYTFTSYIIHWVRQAPGQGLEWIGYINPYNDGTKYNEKFKGRVTMTSDTSTSTVYMELSSLRSEDTAVYYCARGGIRAFMNYWGQGTLVTVSS
VL: DIQMTQSPSSLSASVGDRVTITCKASQDVGTAVAWYQQKPGKAPKLLIYWASTRHTGVPSRFSGSGSGTDFTLTISSLQPEDFATYYCQHYISWTFGQGTKVEIK

EC50 (human GPRC5D [5]): 3.89 nM
binding result (human GPRC5A): no binding
B4: 18CH-16 chimeric (antibody, V domains shown)
VH: EVQLQQSGPELVKPGASVKMSCKASGYTFTSYIIHWVKQKPGQGLEWIGYINPYNDGTKYNEKFKGKATLTSDRSSSTAYMEVSSLTSEDSAVYYCARGGIRAFMNYWGQGTSVTVSS
VL: DIVMTQSHKFMSTSVGDRVSITCKASQDVGTAVAWYQQKPGQSPKLLIYWASTRHTGVPDRFTGSGSGTDFTLSISNVQSEDLADYFCQHYISWTFGGGTNLEIK

EC50 (human CD3 [6]): 22.1 nM
Kd (human CD3 [7]): 20 nM
B5: Bispecific antibody 1 (CD3 arm) (antibody, V domains shown)
VH: EVKLVESGGGLVQPGGSLKLSCAASGFTFNTYAMNWVRQAPGKGLEWVARIRSKYNNYATYYADSVKDRFTISRDDAKNTLYLQMNNLRTEDTAVYYCVRHGNFGNSYVSWFAYWGQGTLVTVSS
VL: QAVVTQEPSLTVSPGGTVTLTCRSSTGAVTTSNYANWVQQKPGQAPRGLIGGTNKRAPGTPARFSGSLLGGKAALTLSGAQPEDEAEYYCALWYSNLWVFGGGTKLTVL
modifications: Acro CDD-H52W1 for SPR; native CD3 on Jurkat cells for FACS

Kd (cynomolgus CD3): 18.9 nM
B6: Bispecific antibody 2 (CD3 arm) (antibody, V domains shown)
VH: EVKLVESGGGLVQPGGSLKLSCAASGFTFNTYAMNWVRQAPGKGLEWVARIRSKYNNYATYYADSVKDRFTISRDDAKNTLYLQMNNLRTEDTAVYYCVRHGNFGNSYVSWFAYWGQGTLVTVSS
VL: QAVVTQEPSLTVSPGGTVTLTCRSSTGAVTTSNYANWVQQKPGQAPRGLIGGTNKRAPGTPARFSGSLLGGKAALTLSGAQPEDEAEYYCALWYSNLWVFGGGTKLTVL
modifications: Acro CDD-C52W4

Kd (cynomolgus CD3): 16.8 nM
B7: Bispecific antibody 1 (CD3 arm) (antibody, V domains shown)
VH: EVKLVESGGGLVQPGGSLKLSCAASGFTFNTYAMNWVRQAPGKGLEWVARIRSKYNNYATYYADSVKDRFTISRDDAKNTLYLQMNNLRTEDTAVYYCVRHGNFGNSYVSWFAYWGQGTLVTVSS
VL: QAVVTQEPSLTVSPGGTVTLTCRSSTGAVTTSNYANWVQQKPGQAPRGLIGGTNKRAPGTPARFSGSLLGGKAALTLSGAQPEDEAEYYCALWYSNLWVFGGGTKLTVL
modifications: Acro CDD-C52W4

EC50 (human CD3 [6]): 12.9 nM
Kd (human CD3 [7]): 18.1 nM
B8: Bispecific antibody 2 (CD3 arm) (antibody, V domains shown)
VH: EVKLVESGGGLVQPGGSLKLSCAASGFTFNTYAMNWVRQAPGKGLEWVARIRSKYNNYATYYADSVKDRFTISRDDAKNTLYLQMNNLRTEDTAVYYCVRHGNFGNSYVSWFAYWGQGTLVTVSS
VL: QAVVTQEPSLTVSPGGTVTLTCRSSTGAVTTSNYANWVQQKPGQAPRGLIGGTNKRAPGTPARFSGSLLGGKAALTLSGAQPEDEAEYYCALWYSNLWVFGGGTKLTVL
modifications: Acro CDD-H52W1 for SPR; native CD3 on Jurkat cells for FACS
